In patent publication US20220195015A1 (published 2022):
Substitutions are numbered along the chain they refer to.

B1: C050 (antibody, V domains shown)
VH: EVQLVESGGGLFQPGGSLRLSCAASGFSVRNNYVSWVRQAPGKGLEWVSVIYSGGTTYYADSVKGRFTISRDISENTLYLQMNSLRAEDTAVYYCAREGDVEGLHDFWSGYSRDRYYFDYWGQGTLVTVSS
VL: QSALTQPASVSGSPGQSIIISCTGTSGDIGGYNYVSWYQQHPGKAPKLMIYDVSFRPSGVSNRFSGSKSDNTASLTISGLQAEDEADYYCSSFTGNNTRVFGTGTKVTVL
B2: C069 (antibody, V domains shown)
VH: QVQLVQSGAEVKKPGSSVNVSCKASGGTFSTYAIHWVRQAPGQGLEWMGGIIPLFHTANYAQKFQGRVTITADESTSTAYMELSSLRSEDTAMYYCAINTQWDLVPRWGRGTLVTVSS
VL: EIVLTQSPGTLSLAPGERATLSCRASQSVNSNYLAWYQQKPGQAPRLLIYGASSRATGIPDRFSGSGSGTDFTLTISRLEPEDFAVYYCQQYGFSLYSFGQGTKLEIK
B3: C083 (antibody, V domains shown)
VH: EVQLVESGGGLVKPGGSLRLSCAASGFTFSSYSMNWVRQAPGKGLEWVSSISSSTSYIYYADSVKGRFTISRDNAKNSLYLQMNSLRAEDTAVYYCARERYGDNWGQGTLVTVSS
VL: QLVLTQSPSASASLGASVKLTCTLSSGHSSYAIAWHQQQPEKGPRYLMSLNSDGSHSKGDGIPDRFSGSSSGAERYLTISSLQSEDEADYYCQTWGPWVFGGGTKLTVL
B4: C063 (antibody, V domains shown)
VH: EVQLVQSGAEVKKPGDSLKISCKASGYSFTRYWIGWVRQMPGKGLDWMGIIYPGDSDTRYSSSFQGQVTISADKSISTAYLQWSSLKASDTSLYYCVRRASSTNFEFWGQGTLVTVSS
VL: SYELTQPPSVSVAPGQTATITCGGNNIGSKTVHWYQQKPGQAPVVVVYDDSDRPSGIPERFSGSKSGSTATLTITRVEAGDEADYYCQVWDSTSDHYVFGTGTKVAVI
B5: C519 (antibody, V domains shown)
VH: QVQLQESGPGLVKPSETLSLTCAVSGGSISSYYWSWIRQPPGKGLEWIGYIDTSGSTNYNPSLKSRVTMSVDTSKNQFSLNVNSVTAADTAVYFCGVCAGDCYAASVFDYRGQGTLVTVSS
VL: DIQMTQSPSSLSASVGDRVTITCQASQDIIFYLNWYQQKPGKAPKLLIYDASNLKTGVPSRFSGSGSGTDFAFTISSLQPEDIATYYCQQYDNLPLTFGGGTKVEIK
B6: C521 (antibody, V domains shown)
VH: EVQLVESGGGLVRPGGSLTLSCVASGFTVGSNFMSWVRQAPGKGLEWVSLIYNSGGTHYADSVKGRFTISRDRSKNTLYLQMNSLRAEDTAIYYCANHGYYYYMDVWGKGTTVTVS
VL: QSALTQPASVSGSPGQSITISCTGTGSDIGAYNYVSWHQHHPGKAPKLIIYDVSNRPSGVSNRFSGSKSGNTASLTISGLQAEDEADYYCTSYTNTTTPWVFGGGTKVTVL
B7: C522 (antibody, V domains shown)
VH: EVQLVESGGGLIQPGGSLRLSCAASEFIVSRNYMSWVRQAPGKGLEWVSVIYSGGSTFYADSVKGRFTISRDESKNTLYLQMNSLRAEDTAIYYCARDRGGGILDYWGQGTLVTVS
VL: DIQMTQSPSSLSASVGDRVTITCQASQDINIFLNWYQQKPGKAPKLLIYDASSLETGVPSRFSGSGSGTDFTFTISSLQPEDFATYYCQQYGNLPKYTFGQGTKLEIK
B8: C032 (antibody, V domains shown)
VH: EVQLVQSGAEVKKPGESLKISCKGSGYSFTSYWIGWVRQMPGKGLEWMGIIYPGDSDTRYSPSFQGQVTISADKSISTAYLQWSSLKASDTAMYYCARGVAVDWYFDLWGRGTLVTVSS
VL: QSVLTQPPSVSGAPGQRVTISCTGSSSNIGAGYDVHWYQQLPGTAPKLLIYGNSNRPSGVPDRFSGSKSGTSASLAITGLQAEDEADYYCQSYDSSLSALYVFGTGTKVTVL
B9: C080 (antibody, V domains shown)
VH: B8 VH with K19N, G24A, S31I, G35A, M40L, S84R, T91S, M93V
VL: B8 VL with T23A, Y33F, H36Y, S54N, Y93S, D94G, S96V, A99D
B10: C067 (antibody, V domains shown)
VH: VQLVESGGGVVQPGRSLRLSCAASGFSFRIFGMNWVRQAPGKGLDWVAGISHDGSDKYFADSVKGRFTISRDNSKNTLYLQMNSLRADDTAVYYCARDMEVDYYDRSGHYHVFHAFDIWGQGTMVTVSS
VL: DIVMTQSPDSLAVSLGARATINCKSSQSILYSSDNKSSLAWYQQKPGHPPKLLIYWASTRESGVPDRFSGSESGTDFTLTISNLQGEDVAVYYCQQYYSIPRSFGQGTKLEIK
B11: C091 (antibody, V domains shown)
VH: QVQLVQSGAEVKKPGSSVKVSCKASGGTFSSYTISWVRQAPGQGLEWMGRIIPILGIANYAQKFQGRVTITADKSTSTAYMELSSLRSEDTAVYYCARDSGYSGYGSTYYMDVWGKGTTVTVSS
VL: QSVLTQPPSVSGAPGQRVTISCTGSSSNIGAGYDVHWYQQLPGTAPKLLIYGNSNRPSGVPDRFSGSKSGTSASLAITGLQAEDEADYYCQSYDSSLSGSVFGTVTKVTVL
B12: C092 (antibody, V domains shown)
VH: B11 VH with T28S, S30T, S31N, Y32H, T33F, I57T, K63N, T69M, I70M
VL: B11 VL with S26N, T44A, S54N, G70D, A82V, G99D, T104S, V105G
B13: C090 (antibody, V domains shown)
VH: QVQLVESGGGVVQPGRSLRLSCAASGFTFRTYAMHWVRQAPGKGLEWVAVILSDGNNKYYADSVKGRFTISRDNSKNTLYLQMNSLRAEDTAIFYCAREQEANYYDISGYYHWGESLGYWGQGTLVTVSS
VL: DIQLTQSPSFLSASVGDRVTITCRASQGISSYLAWYQQKPGKAPKFLIYGASTLQSGVPSRFSGSGSGTEFTLTISSLQPEDFASYYCQKVNSYPPGLTFGGGTKVEIK
B14: C035 (antibody, V domains shown)
VH: EVQLVESGGGLVQPGGSLRLSCAASGFIFSSYWMTWVRQAPGKGLEWVASIKYNGNERNYVDSVKGRFTISRDNARNSLFLQLNNLGAEDTAVYYCARQPESTIWYYFDYWGQGTLVTVSS
VL: SYELTQPPSVSVSPGQTARVTCSGHALPDQYTYWYQQRPGRAPVLVIYVNNQRPSGIPDRFSATTSGTTVTLTISGVQAEDEADYYCQSADSSGSYVVFGGGTKLTVL
B15: C088 (antibody, V domains shown)
VH: QVQLVQSGAEAKKPGASVKVSCKTSGYTFTNYFMHWVRQAPGQGPEWMGIIDSSDGGASYAQKFQGRVTMTRDTSTSTVYMELRSLKFEDTAVYYCARASTSTTSWSDALSLGSWGQGTLVTVSS
VL: QSVLTQPPSVSGAPGQRVTISCTGSSSNIGGGSVVHWYQQLPGTAPKLLIYANSNRPSGVPDRFSGSKSGTSASLAIAGLQAEDEADYYCQSWDNGLSASGVVFGGGTKLTVL
B16: C065 (antibody, V domains shown)
VH: QVQLQESGPGLVKPSQTLSLTCTVSGGSISSSNYYWSWIRQHPGKGLEWIGYIDYSGGTYYNPSLKSRVTISVDTSKNQFSLKLSSVTAADTAVYYCARVSTTVTTYLVGGFDIWGQGTMVTVSS
VL: IRMTQSPSSLSASVGDRVTITCQASQDITNYLNWYQQKPGKAPKLLLYDASNLETGVPSRFSGSGSGTDFTFTISSLQPEDIATYYCQQYDNLPWTFGQGTKVEIK
B17: C064 (antibody, V domains shown)
VH: EVQLLESGGDLVQPGGSLRLSCAASGFTFSNYAMSWVRQAPGKGLEWVSAISGSGGNTYYADSVKGRFTISRDNSKNTLYLQMNSLRAEDTAVYYCAKAVHYGGNSDRRFSEPSAPFDYWGQGTLVTVSS
VL: QSALTQPASVSGSPGQSITISCTGTSSDVGSYNLVSWYQQHPGKAPKLMIYEGSKRPSGVSNRFSGSKSGNTASLTISGLQAEDEADYYCCSYAGSSTPYVFGTGTKVTVL
B18: C094 (antibody, V domains shown)
VH: QVQLQESGPGLVKPSETLSLTCNVSGVSISTDYWSWIRQPPGKGLEWIGYIYYSGNTKDYNPSLKSRVTISVDTSKNQFSLMLSSVTAADTAVYYCARHYDILTSLSWFDPWGQGTLVTVSS
VL: QSVLTQPPSVSAAPGQKVTISCSITNSNLGNIYVSWYQQLPGTAPKLLIYGNNKRPSGIPDRFSGSKSGTSATLGITGLQTGDEAHYYCGTWDSSLSANWVFGGGTKLTVL
B19: C068 (antibody, V domains shown)
VH: QVQLVESGGGVVQPGRSLRLSCVASGFSFSTYGMHWVRQAPGKGLEWVALIWSDGSNKYYGDAAEGRFTISRDNSNNTLYLQMNNLRAEDTALYYCARDHSSSSFVYYYYMDVWGKGTTVTVSS
VL: QSALTQPRSVSGSPGQSVTISCTGTSSDIGGYNYVSWYQQHPDKAPKFIIFDVSKRPSGVPDRFSGSKSGNTASLTISGLQAEDEADYYCCSYAGPYPYVFGTGTKVTVL
B20: C085 (antibody, V domains shown)
VH: QVQLQESGPGLVKPSETLSLTCTVSGDSMSSYFWTWIRQPPGKGLECIGYFYPSGSTNYNPSLKSRVTISIDTSKNQFSLKLSSVTAADTAVYYCARLKQQLVGFGWFDPWGQGTLVTVSS
VL: QSVLTQPPSVSGAPGQRVTISCTGSSSNIGADYDVHWYQQFPGTAPKVLIYANTNRPSGVPERFSGSKSGTSASLAITGLQAEDEADYYCQSYDHSLNWVFGGGTKLTVL
B21: C086 (antibody, V domains shown)
VH: B20 VH with M29I, S31T, T35A, K43R, Y50S, Y52F, N58Y, I71V, S83N, T115S
VL: B20 VL with S26I, D34E, Q39V, G66A, S96R, N98H
B22: C518 (antibody, V domains shown)
VH: EVQLVESGGGLIQPGGSLRLSCAASGITVSSNYMSWVRQAPGKGLEWVSVMYAGGSSFYADSVKGRFTISRDNSKNTLYLQMNSLRVEDTAVYYCARDLIALGVDVWGQGTTVTVSS
VL: DIQLTQSPSFLSASVGDRVTITCRASQGISSYLAWYQQKPGKAPKLLIYAASTLQSGVPSRFSGSGSGTEFTLTISSLQPEDFATYYCQLLNSYPMCSFGQGTKLEIK
B23: C066 (antibody, V domains shown)
VH: EVQLVESGGGLIQPGGSLRLSCAASGLLVSRNYMTWVRQAPGKGLEWVSVIYSGGSTFYADSVRGRFTISRDNSKNTLYLQMDSLRAEDTAVYYCARDVGDYYGMDVWGQGTTVTVSS
VL: B22 VL with S9A, I29M, S31N, K45N, A50T, M96Q, C97L, S98T, Q101G, L105V

Each binder was assayed against SARS-CoV-2 spike protein receptor binding domain (RBD) (SARS-CoV-2, UniProt P0DTC2 319-539) (assay: ELISA on coated RBD protein).
B1 was tested, and the EC50 was 1.93 ng/mL.

The binders below were run against SARS-CoV-2 receptor binding domain (RBD), wild type (SARS-CoV-2, UniProt P0DTC2 319-539) (assay: ELISA, RBD protein coated, mAb titrated).
B2 showed an EC50 of 381 ng/mL.
In the case of B3, the EC50 is reported as 25.1 ng/mL.
Binder B4 has an EC50 of 414 ng/mL.
B5 was tested, and the EC50 was 1.06 ng/mL.
B6 gave an EC50 of 6.9 ng/mL.
Binder B7 has an EC50 of 0.93 ng/mL.
With B8 the EC50 was 17.3 ng/mL.
Work on B9 yielded an EC50 of 1.97 ng/mL.
B10 gave an EC50 of 6.98 ng/mL.
Binder B11 has an EC50 of 89.5 ng/mL.
Work on B12 yielded an EC50 of 7.07 ng/mL.
Binder B13 has an EC50 of 6.22 ng/mL.
Binder B14 has an EC50 of 15.2 ng/mL.
Binder B15 has an EC50 of 2.44 ng/mL.
In the case of B16, the EC50 is reported as 29.1 ng/mL.
B17 gave an EC50 of 363 ng/mL.
Work on B18 yielded an EC50 of 1.67 ng/mL.
Work on B19 yielded an EC50 of 5.46 ng/mL.
B20 gave an EC50 of 2.38 ng/mL.
Binder B21 has an EC50 of 3.01 ng/mL.
Binder B22 has an EC50 of 1.13 ng/mL.
B23 was tested, and the EC50 was 4.2 ng/mL.
